Reference: paper PMC4366199, “Arfaptin-1 Negatively Regulates Arl1-Mediated Retrograde Transport” (PLoS ONE, 2015)

T1: GST-Arl1QL (Arf-like protein 1, Gln71 to Leu, putative active GTP-bound form) (human, UniProt P40616 1-181, Gln71 to Leu (Arl1QL))
T1 construct: Arf-like protein 1 (Arl1), human; fragment encoding Arl1QL subcloned into pGEX4T via EcoRI; Loaded with GTPγS on the resin; also called active form of Arl1; source: E. coli BL21, immobilized on glutathione-sepharose resin, exchanged for GTPγS
T1 sequence (looked up): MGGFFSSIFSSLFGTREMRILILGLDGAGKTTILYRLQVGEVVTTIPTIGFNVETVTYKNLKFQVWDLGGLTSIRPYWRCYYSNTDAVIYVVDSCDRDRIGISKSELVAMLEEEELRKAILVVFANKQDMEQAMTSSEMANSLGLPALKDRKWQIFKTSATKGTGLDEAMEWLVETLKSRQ


Target: T1, GST-Arl1QL (Arf-like protein 1, Gln71 …)
Assay: pull-down; GST fusion proteins (5 μg) immobilized on glutathione-sepharose, incubated with GTPγS (QL) or GDP (TN); HeLa lysates (2.5 mg), endogenous proteins; 12.5% SDS-PAGE and western blotting
Conditions: one partner purified

Binder	fold change of the level bound, against Arf1QL [fold]
arfaptin-1b (Arf-interacting protein 1b, long isoform), endogenous (natural protein, human (endogenous in HeLa), UniProt P53367 1-373, looked up, arfaptin-1b, long isoform of arfaptin-1 with an insertion (residues 69-100) absent from arfaptin-1a; source: endogenous, HeLa lysate) MAQESPKNSAAEIPVTSNGEVDDSREHSFNRDLKHSLPSGLGLSETQITSHGFDNTKEGVIEAGAFQGSPAPPLPSVMSPSRVAASRLAQQGSDLIVPAGGQRTQTKSGPVILADEIKNPAMEKLELVRKWSLNTYKCTRQIISEKLGRGSRTVDLELEAQIDILRDNKKKYENILKLAQTLSTQLFQMVHTQRQLGDAFADLSLKSLELHEEFGYNADTQKLLAKNGETLLGAINFFIASVNTLVNKTIEDTLMTVKQYESARIEYDAYRTDLEELNLGPRDANTLPKIEQSQHLFQAHKEKYDKMRNDVSVKLKFLEENKVKVLHNQLVLFHNAIAAYFAGNQKQLEQTLKQFHIKLKTPGVDAPSWLEEQ	1.84
arfaptin-1a (Arf-interacting protein 1, short isoform), endogenous (natural protein, human (endogenous in HeLa), UniProt P53367-2 1-341, looked up, arfaptin-1a, short isoform of arfaptin-1; lacks the insertion (residues 69-100) of arfaptin-1b; also called arfaptin-1a (short form); source: endogenous, HeLa lysate) MAQESPKNSAAEIPVTSNGEVDDSREHSFNRDLKHSLPSGLGLSETQITSHGFDNTKEGVIEAGAFQGGQRTQTKSGPVILADEIKNPAMEKLELVRKWSLNTYKCTRQIISEKLGRGSRTVDLELEAQIDILRDNKKKYENILKLAQTLSTQLFQMVHTQRQLGDAFADLSLKSLELHEEFGYNADTQKLLAKNGETLLGAINFFIASVNTLVNKTIEDTLMTVKQYESARIEYDAYRTDLEELNLGPRDANTLPKIEQSQHLFQAHKEKYDKMRNDVSVKLKFLEENKVKVLHNQLVLFHNAIAAYFAGNQKQLEQTLKQFHIKLKTPGVDAPSWLEEQ	1.84
